Experimental findings from FireProtDB (doi:10.1021/bi048182n) are described below.

Where “and” joins values, the source holds several entries; their conditions need not be identical. Equal values may be shown once.

The conditions of the data set: Bos taurus, pH 8.4, 23 °C, GdnHCl, HPLC, Tris-HCl 0.1 M, reversible: yes, whole UniProt chain shown.

B1: Alpha-lactalbumin wild type, P00711 (protein)
chain: MMSFVSLLLVGILFHATQAEQLTKCEVFRELKDLKGYGGVSLPEWVCTTFHTSGYDTQAIVQNNDSTEYGLFQINNKIWCKDDQNPHSSNICNISCDKFLDDDLTDDIMCVKKILDKVGINYWLAHKALCSEKLDQWLCEKL
Turning to B1, the denaturant m value is 2.3 kcal/mol/M and 3.4 kcal/mol/M; the “denaturant midpoint (higher = more stable)” value was 1.1 M and 0.4 M; the unfolding free energy is 2.53 kcal/mol and 1.36 kcal/mol. Moreover, under “CaCl2 5 mM”, the denaturant m value is 2.1 kcal/mol/M and 2.4 kcal/mol/M; the “denaturant midpoint (higher = more stable)” value is 2.15 M and 1.4 M; the unfolding free energy is 4.52 kcal/mol and 3.36 kcal/mol.
